Experiment [1] has as its target T1, human Aβ (1-40) peptide (human).
T1 construct: also called Aβ1-40 fibers
Briefly: SPR, immobilized fibers.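 Also: biacore SPR using in vitro grown Aβ1-40 or Aβ1-42 fibrils immobilized on the chip with Fab analytes, KD from koff/kon fits or equilibrium isotherms based on total Fab concentration.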
Experimental: (§1) Biacore2000 and Biacore3000 instruments were used for these measurements. Aβ1-40 and Aβ1-42 fibers were generated in vitro by incubation of synthetic peptides at a concentration of 200 μg/ml in 10 mM Na-acetate buffer (pH 4.0) for three days at 37° C. […] For binders with slow kinetics KD values were calculated by curve fitting of the time-dependent sensor responses, i.e. from the ratio of koff/kₒₙ. Binders with fast kinetics were analyzed by fitting the concentration-dependent sensor responses at equilibrium (adsorption-isotherms). KD values were calculated from the Biacore sensograms based on the total Fab concentration as determined by a protein assay. […] Briefly, time-dependent protein binding to Aβ1-40 fibers immobilized on the Biacore chip was measured during the association phase under mass-limited conditions at different flow rates of the analyte solution.

The target of experiment [2] is T2, Aβ (1-42) peptide (human).
T2 construct: also called Aβ1-42 fibers; Aβ4
Briefly: SPR, immobilized fibers.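 Also: biacore SPR using in vitro grown Aβ1-40 or Aβ1-42 fibrils immobilized on the chip with Fab analytes, KD from koff/kon fits or equilibrium isotherms based on total Fab concentration.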
Experimental: as §1

B1: MS-Roche #7.2.H6 Fab (Fab, V domains shown)
VH: QVQLVESGGGLVQPGGSLRLSCAASGFTFSSYAMSWVRQAPGKGLEWVSAINARGNRTYYADSVKGRFTISRDNSKNTLYLQMNSLRAEDTAVYYCARGKGNTHKPYGYVRYFDVWGQGTLVTVSS
VL: DIVLTQSPATLSLSPGERATLSCRASQSVSSSYLAWYQQKPGQAPRLLIYGASSRATGVPARFSGSGSGTDFTLTISSLEPEDFATYYCQQIYSFPHTFGQGTKVEIKR
B1: in experiment [1], the affinity, expressed as Kd, was 1 nM.

B2: MS-Roche #7.9.H5 Fab (Fab, V domains shown)
VH: QVQLVESGGGLVQPGGSLRLSCAASGFTFSSYAMSWVRQAPGKGLEWVSAINHAGNKKYYADSVKGRFTISRDNSKNTLYLQMNSLRAEDTAVYYCARGKGNTHKPYGYVRYFDVWGQGTLVTVSS
VL: DIVLTQSPATLSLSPGERATLSCRASQSVSSSYLAWYQQKPGQAPRLLIYGASSRATGVPARFSGSGSGTDFTLTISSLEPEDFATYYCLQIYNMPITFGQGTKVEIKR
notes: assembled
For B2, the equilibrium dissociation constant (Kd) came to 1.8 nM in experiment [2] and 1.7 nM in experiment [1].

B3: MS-Roche #7.2.H8 Fab (Fab, V domains shown)
VH: QVQLVESGGGLVQPGGSLRLSCAASGFTFSSYAMSWVRQAPGKGLEWVSAINASGHKTYYADSVKGRFTISRDNSKNTLYLQMNSLRAEDTAVYYCARGKGNTHKPYGYVRYFDVWGQGTLVTVSS
VL: DIVLTQSPATLSLSPGERATLSCRASQSVSSSYLAWYQQKPGQAPRLLIYGASSRATGVPARFSGSGSGTDFTLTISSLEPEDFATYYCQQIYSFPHTFGQGTKVEIKR
Take B3: the Kd in experiment [2] amounted to 2.1 nM; in experiment [1], 1.5 nM.

B4: MS-Roche #7.2.L2 Fab (Fab, V domains shown)
VH: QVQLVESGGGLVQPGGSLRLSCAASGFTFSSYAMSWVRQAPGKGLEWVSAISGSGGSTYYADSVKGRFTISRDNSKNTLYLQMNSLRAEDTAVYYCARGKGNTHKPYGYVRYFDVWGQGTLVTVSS
VL: DIVLTQSPATLSLSPGERATLSCRASQYISFRYLAWYQQKPGQAPRLLIYGASSRATGVPARFSGSGSGTDFTLTISSLEPEDFATYYCQQIYSFPHTFGQGTKVEIKR
As for B4, the values for the Kd in experiment [2] and in experiment [1] were 4 nM and 5.6 nM, respectively.

B5: MS-Roche #7.3.H1 Fab (Fab, V domains shown)
VH: QVQLVESGGGLVQPGGSLRLSCAASGFTFSSYAMSWVRQAPGKGLEWVSAISAISNKTYYADSVKGRFTISRDNSKNTLYLQMNSLRAEDTAVYYCARGKGNTHKPYGYVRYFDVWGQGTLVTVSS
VL: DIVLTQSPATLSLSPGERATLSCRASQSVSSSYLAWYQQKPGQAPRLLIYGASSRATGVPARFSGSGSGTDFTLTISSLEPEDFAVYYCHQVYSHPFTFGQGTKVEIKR
In the case of B5, the values for the Kd in experiment [2] and in experiment [1] were 11.2 nM and 8 nM, respectively.

B6: MS-Roche #7.2.L4 Fab (Fab, V domains shown)
VH: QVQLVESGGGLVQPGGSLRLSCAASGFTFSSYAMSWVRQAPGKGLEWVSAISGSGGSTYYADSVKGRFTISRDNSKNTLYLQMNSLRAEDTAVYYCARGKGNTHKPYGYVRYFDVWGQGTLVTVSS
VL: DIVLTQSPATLSLSPGERATLSCRASQFIRRSYLAWYQQKPGQAPRLLIYGASSRATGVPARFSGSGSGTDFTLTISSLEPEDFATYYCQQIYSFPHTFGQGTKVEIKR
Consider B6, for which the Kd in experiment [2] and in experiment [1] was 1.1 nM each time.

B7: MS-Roche #7.3.L1 Fab (Fab, V domains shown)
VH: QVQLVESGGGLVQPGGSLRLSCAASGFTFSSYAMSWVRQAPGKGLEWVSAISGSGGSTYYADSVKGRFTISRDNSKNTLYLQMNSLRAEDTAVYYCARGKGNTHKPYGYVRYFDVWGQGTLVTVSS
VL: DIVLTQSPATLSLSPGERATLSCRASQYLHYGYLAWYQQKPGQAPRLLIYGASSRATGVPARFSGSGSGTDFTLTISSLEPEDFAVYYCHQVYSHPFTFGQGTKVEIKR
Regarding B7, the Kd was 6 nM in experiment [2] and 4.5 nM in experiment [1].

B8: MS-Roche #7.2.H7 Fab (Fab, V domains shown)
VH: QVQLVESGGGLVQPGGSLRLSCAASGFTFSSYAMSWVRQAPGKGLEWVSAINSRGSDTHYADSVKGRFTISRDNSKNTLYLQMNSLRAEDTAVYYCARGKGNTHKPYGYVRYFDVWGQGTLVTVSS
VL: DIVLTQSPATLSLSPGERATLSCRASQSVSSSYLAWYQQKPGQAPRLLIYGASSRATGVPARFSGSGSGTDFTLTISSLEPEDFATYYCQQIYSFPHTFGQGTKVEIKR
For the molecule B8, the Kd in experiment [2] is 8.1 nM; in experiment [1], 15.5 nM.

B9: MS-Roche #7.9.H7 Fab (Fab, V domains shown)
VH: QVQLVESGGGLVQPGGSLRLSCAASGFTFSSYAMSWVRQAPGKGLEWVSAINASGTRTYYADSVKGRFTISRDNSKNTLYLQMNSLRAEDTAVYYCARGKGNTHKPYGYVRYFDVWGQGTLVTVSS
VL: DIVLTQSPATLSLSPGERATLSCRASQSVSSSYLAWYQQKPGQAPRLLIYGASSRATGVPARFSGSGSGTDFTLTISSLEPEDFATYYCLQIYNMPITFGQGTKVEIKR
notes: also called MSR 7.9H7
As for B9, the Kd in experiment [2] is 0.9 nM; in experiment [1] it was 1 nM.
